{
  "source": "paper PMC6973308",
  "key": {"[1]": {"biological_target": "anti-HER2 (trastuzumab) heavy chain, produced alone", "test": "HPLC-MS"}, "[2]": {"biological_target": "anti-HER2 (trastuzumab) heavy chain, produced alone", "test": "SDS-PAGE"}, "[3]": {"biological_target": "anti-HER2 (trastuzumab) heavy chain, produced alone", "test": "SEC"}, "[4]": {"biological_target": "anti-HER2 (trastuzumab) light chain, produced alone", "test": "SEC"}, "[5]": {"biological_target": "anti-HER2 (trastuzumab) light chain, produced alone", "test": "SDS-PAGE"}},
  "data": [
    {"substance": "anti-HER2 (trastuzumab) heavy chain, produced alone (domain or fragment)", "values": [
      {"measurement": "stoichiometry N", "setting": "[1]", "value": 2},
      {"measurement": "stoichiometry N", "setting": "[2]", "value": 2}
    ]},
    {"substance": "anti-HER2 (trastuzumab) light chain, produced alone (domain or fragment)", "values": [
      {"measurement": "% Area of monomer mAb (SEC-HPLC)", "setting": "[3]", "value": 90.1, "unit": "% Area"},
      {"measurement": "stoichiometry N", "setting": "[4]", "value": 2},
      {"measurement": "percent of LC dimers covalently bonded (42 KDa band)", "setting": "[5]", "value": 55, "unit": "%"}
    ]}
  ]
}
